Consider 13 molecules from article PMC4858740 (2016).

A word on the Kd: it is the free concentration of one partner at which half of the binding sites on the other are occupied at equilibrium, for simple one-to-one binding. Read a high Kd as a looser complex.

T1: CD45RO ECD (human)
T1 chain: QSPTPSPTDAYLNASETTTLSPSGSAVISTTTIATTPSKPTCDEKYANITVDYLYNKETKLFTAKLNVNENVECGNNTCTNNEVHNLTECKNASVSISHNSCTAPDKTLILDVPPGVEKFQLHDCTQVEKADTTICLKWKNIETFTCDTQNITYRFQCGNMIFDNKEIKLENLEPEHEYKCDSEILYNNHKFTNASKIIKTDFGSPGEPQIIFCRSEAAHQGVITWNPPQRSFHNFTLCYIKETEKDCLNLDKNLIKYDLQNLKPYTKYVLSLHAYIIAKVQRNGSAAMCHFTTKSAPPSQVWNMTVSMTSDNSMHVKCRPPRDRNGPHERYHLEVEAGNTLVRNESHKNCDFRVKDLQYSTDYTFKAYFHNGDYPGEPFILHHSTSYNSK

T2: SLAMF4 ECD (human, UniProt Q9BZW8 22-229)
T2 chain: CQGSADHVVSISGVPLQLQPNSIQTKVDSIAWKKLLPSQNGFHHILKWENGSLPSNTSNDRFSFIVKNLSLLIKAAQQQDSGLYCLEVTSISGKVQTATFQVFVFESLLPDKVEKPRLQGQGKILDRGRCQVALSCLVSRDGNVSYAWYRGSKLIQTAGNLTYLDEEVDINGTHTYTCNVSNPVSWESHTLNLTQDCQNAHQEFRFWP

T3: SLAMF6 ECD (human, UniProt Q96DU3 22-226)
T3 chain: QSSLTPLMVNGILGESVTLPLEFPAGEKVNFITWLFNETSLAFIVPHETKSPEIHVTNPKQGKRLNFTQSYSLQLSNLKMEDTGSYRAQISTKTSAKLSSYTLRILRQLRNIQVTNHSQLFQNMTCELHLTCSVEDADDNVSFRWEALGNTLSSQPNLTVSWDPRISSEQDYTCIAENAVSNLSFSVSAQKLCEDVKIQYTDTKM

B1: HAdV-D24 E3/49K (Fc fusion)
chain: GIHIINATWWDNITLVGPSDTPVTWYDGKGLQFCDGSTVKNPQIRHTCNDQNLTLIHVNKTHERTYMGYRHDSKGKVDYKVTVIPPPPATVKPQPDPENVFVYMGNNVTLVGPPGIPVSWYYHNGTQFCDGDKIIHPEFNHTCDKQNLTLLFVNFTHDGGYLGFNYKGTQRIQYEVIVLDRFPNSGQMKIEEQSEETEQKHTEHNKAGQKQGIDTNQKKANNRQKPSQRPSRRRPTNTPETKQLTVSIGSNLTLVGPDGKVTWYDGDLKRPCEEQNYRLPHQCSAQNLTLINVTKSHEGTYYGTNDKDESKRYRVKVNTTNSQAVKINPYTRPTTPDQKHRFELQIENNANDEESKIPSTT
B2: HAdV-D43 E3/49K (Fc fusion)
chain: QIEHEKQSVQWGKNITLVGPNDKPVEWHGPRDQLCKGKQILHPEFNHTCNEQNLTLLFVNNTFQGIYYGIRNDGRGMKQIQLTVVAPPASTRKPLSKPKQVNVQYGHNVTLEGPPGIPIDWLGPTNQLCKGKEILHPEINHTCNVQNLTLLFVNYTHRGAYFGFNKDGTDRHHYEVTILDGFTNAGQTKEESVSDKSKGKTSSKEKKTQKNNSQRNDDVKELDFPSGSNQTLVGPPGSKVDWYTTKNGDFTKLCDGLNGPKNLCNYQNLTLRNVSRQDEGTYFGSNEQSKHYRVTVYTKPRNQTKRIQPYTTKGTTKSTLGNHSFELQLADDQSNQQDQQIPSTT
B3: HAdV-D28 E3/49K (Fc fusion)
chain: QAVHVNLEICYGCNGTLIGPPKTPVEWYDGRGHKLCAGTDTFRKELNHTCNLQNMTLTFVNLTHKGTYYGFGSDNKNSRVYQVTIKPPVLTTRRPLLKPEDVVITKGNNKTLVGPPDTPVDWYDGSGHKLCKGKEVHYPELNHTCNEQNLTLIFVNATFKGTYYGFRKDGTDKKEYRVTIDDLYAKQLKQEKDEKPRSGHDKQKSKSQERQNPKTEERHEHRDVVKEVSFRTGTNQTLVGPPGSNVDWLKIGNGGTFSELCKGDDKHYSCNSQNLTIINVTRSDEGSYYGSNDDSAHYRVSVYDPVQKKRVMKIQPHTTKTTTEGTTKSSTNESDENFALQQGNNGENNQSDETNIPS
B4: HAdV-D39 E3/49K (Fc fusion)
chain: KIDNEDVIGHWGKNITLVGPPEKPIEWHGPRVQLCDGSKILHPEFNHTCNEQNLTLIFLNNSFNGKYYGIRKDGFGMKQYTLKVIAPKASTRRPLSPPQQIDVRMGQNVTLVGPVDTPVNWHGPKHELCRGSQVIHPEVNHTCNEQNLTLLFVNYTFWGAYLGFNRYGTDRVHYEVTIIDGFKNAGQQKDETGQHNPSNKDRPNPKVKNPQRTKNTHKTNTQNKKDIEKDFRKGTNQTLVGPPGSKVDWYEGKNGDLVKLCDGKSGLKVSCNDQNITLINVNETYSGTYYGSNDEDHRQYKVTVYTIPRNETVKIQPHTTKGTTGGSTVNEQFALQQDNDRTNQNDEQIPSTT
B5: HAdV-D37 E3/49K (Fc fusion)
chain: GFHTINATWWANITLVGPPDTPVTWYDTQGLWFCNGSRVKNPQIRHTCNDQNLTLIHVNKTYERTYMGYNRQGTKKEDYKVVVIPPPPATVKPQPEPEYVFVYMGENKTLEGPPGTPVTWFNQDGKKFCEGEKVLHPEFNHTCDKQNLILLFVNFTHDGAYLGYNHQGTQRTHYEVTVLDLFPDSGQMKIENHSEETEQKNDEHHNWQKQGGQKQGGQKTNQTKVNDRRKTAQKRPSKLKPATIEAMLVTVTAGSNLTLVGPKAEGKVTWFDGDLKRPCEPNYRLRHECNNQNLTLINVTKDYEGTYYGTNDKDEGKRYRVKVNTTNSQSVKIQPYTRQTTPDQEHKFELQFETNGNYDSKIPSTT
B6: HAdV-D19a E3/49K (Fc fusion)
chain: GFHTINATWWANITLVGPPDTPVTWYDTQGLWFCNGSRVKNPQIRHTCNDQNLTLIHVNKTYERTYMGYNRQGTKKEDYKVVVIPPPPATVKPQPEPEYVFVYMGENKTLEGPPGTPVTWFNQDGKKFCEGEKVLHPEFNHTCDKQNLILLFVNFTHDGAYLGYNHQGTQRTHYEVTVLDLFPDSGQMKIENHSEETEQKNDEHHNWQKQGGQKQGGQKTNQTKVNDRRKTAQKRPSKLKPATIEAMLVTVTAGSNLTLVGPKAEGKVTWFDGDLKRPCEPNYRLRHECNNQNLTLINVTKDYEGTYYGTNDKDEGKRYRVKVNTTNSQSVKIQPYTRQTTPDQEHKFELQFETNGNYDSKIPSTT
B7: HAdV-D58 E3/49K (Fc fusion)
chain: SQAGFHTINATWWANITLVGPSDTPVTWYDKQGMQFCDGNTVKNPQIRHECNEQNLTLIHVNKTHERTYMGYNRQSTHKEDYKVIVIPPPPATVKPQSGPEYVYVNMGENKTLVGPPGIPVTWYDGEGNKFCDGEKVEHAEFNHTCDVQNLTLLFINLTHDGAYLGYNHQGTKRTWYEVVVTDGFPKSGEMKIEDQSRQTEQKQTGQKQNEHKQGGQKQEGQKETSQKKANDKQKATHRRPSKLKPHTPEAKLITVSSGSNLTLLGPDGKVTWYDDDLKRPCEPGYKLNCKCDNQNLTLINVTKLYEGVYYGTNDGGNGKRYRVKVNTTNSQNVKIQPYTRPTTPDQKHRFELQIDYNQDNDKIPSTT
B8: HAdV-D51 E3/49K (Fc fusion)
chain: LLESKVVKIPYGSTYVLVGPRDPPVQWFGGGDFTMFCNGSKTHLQNIRHTCNEQNLTLLSVGYGHRGDYYGFRHDNTGRKHYKVIIEAPPPVTRKPLSEIKYVNVTMGQNLTLSGPPGTPVTWHGEGHKLCEGKNVFYRELNHTCTEKDLILLFVNRTHNGPYIGYNKEGTDREHYEVSVLDLMPIAGQGLDSKNKEQKIPPKRKSKDKVQEVNFPTGTDQTLIGPPGQKIDWHVSSNDGQFKKLCETKDGKHSCHGRNITIFNISRADEGSYYGSSHDGSSHYKVTVYDKSSFGKAKIKIDPYTTKGTTTENYEFELQQGNDESDDQKQIPSTT
B9: HAdV-D47 E3/49K (Fc fusion)
chain: EAETVIVDVKSGTNHTLEGPRKTPVQWYGGADFIMYCNGSKIHHKELNHTCSIQNITLTFINRTHHGTYYGFASDNQNSKVYHVRVDLEPPRPRATLAPPQDITIKYGSNRTLQGPNVTPVSWYDGEGNRFCDGDEIDHPELNHTCNAQNLTLLFVNETHERTYYGVSGDWKQRNEYDVTVIKTQNHKNAMQQKVEQKVEQKPSKRPKQKTLQTTIQVTIPIGSNYTLVGPSPPVSWHTTKNGLTELCNGNPILRHTCDGQNITLINVNATFEADYYGSNNNSESKHYRVKVFKQRKDQALLFRPLTTKGTTGGSTVNEQFALQQGNDKTNQNDEQIPSTT
B10: HAdV-D9 E3/49K (Fc fusion)
chain: GIINLNVSWGMNLTLVGPSDLPVTWYDGKGMQFCDGNTIKNPQIKHSCNQQNLTLLNADKSHERTYLGYRHDSKGKVDYKVTVIPPPPATRKPLSEPHYVTVTMGDNITLVGPSDLPVTWYDGEGNKFCDGEKVEHAEFNHTCNIQNLTLLFVNLTHNGAYIGYNKDGSDRELYEVSVKTLFQNGAGQSKVEQGNKGKPNTAQSGGKKTKTEHRNQSPKRKSTNNLQPTQLYVRPFTNVSLTGPPNGKVTWYDGELNDPCEQKYKLRTFCNQQNLTLINVSSTYDGIYYGTDEKDKANRYRIKVNTTNHKTVKIKPHTREPPAVQEKQFELQDAETDENESKIPSAT
B11: HAdV-F41 CR1β (Fc fusion)
chain: AVPEKTLNNLVRVYALVGTNLSLDSMKTPQIDELTSLSWIKQEDNPNKNLQSFFFIGQKLCEVTKDKITVFNYYPLEFSCANVTLYLYNLKTDDSGLYNGKAHTKELEHNTYVRLYVIDIPPPKCDITSRYLGIQATGEDYCLIEINCTNSKYPAVVKFNGRQSNFYHYVSENGNKELPNFYETHITVNGTHKSFHFNYPFNDLCQTTSALQYNDNVQ
B12: HAdV-A18 CR1β (Fc fusion)
chain: QTAERPLKVVAEAGHNVTLPHLLPGFNKTGHVTWLIEIPDYGSAPSNKFVFSGQKLCEFASKNLTWSFPQLIFKCDNYDITLFWLKIENSAIYNVKNTIEATESNIYYQLTVIQINPPNCIITSKYLTEDYCHITINCTNSRYPNKVIFNNVTRSYYGYAKGSSTLPNYFTTSFNVSGITKTFKHNYPFSELCTYPSSENFYNSKETVST
B13: HAdV-B55 CR1β (Fc fusion)
chain: QTVVSIPLGHNYTLIGPPITSEVIWTKLGSVDYFDIICNKTKPIIVTCNIQNLTLINVSKVYSGYYYGYDRYSSQYRNYLVRVTQSKTTKMPNMAEIRSDDNSLETFTSSTTPDEKNIPDS

The target of one experiment is T1, CD45RO ECD. Nature of the experiment: SPR. Background: SPR reads the build-up and loss of mass on a sensor chip optically.
Turning to B1, binding was put at a Kd of 0.08 nM. Molecule B2 returned a Kd of 0.38 nM. B3: the affinity, expressed as Kd, was 0.33 nM. In turn, B4 had a Kd of 0.39 nM. Regarding B5, the equilibrium dissociation constant (Kd) was found to be 0.11 nM. For B6, the Kd is 0.06 nM. For B7, binding was put at a Kd of 0.38 nM.

For the molecule B8, the affinity, expressed as Kd, was 0.06 nM. The same measure, in the same setting: the figure for B9 is 0.01 nM. Still for that read-out and setting: the figure for B10 is 0.08 nM.

In a further experiment the target is T2, SLAMF4 ECD. Nature of the experiment: SPR.
As for B11, binding was put at a Kd of 44 nM.

The molecule B12 gave a dissociation constant Kd of 62 nM.

In another experiment the target is T3, SLAMF6 ECD. As to the kind of experiment: SPR.
Regarding B13, binding was put at a Kd of 13 nM.
